In the RNAGym collection of RNA variant scans (doi:10.7554/elife.80360):

B1: CPEB3 Ribozyme (parent)
chain: GGGGGCCACAGCAGAAGCGUUCACGUCGCGGCCCCUGUCAGAUUCUGGUGAAUCUGCGAAUUCUGCUGU

Variants of: B1
Test: self-cleavage, relative activity (ratio to wild type); higher = more cleavage; co-transcriptional

Compared with U55G U64C, U55G U64A is lower in self-cleavage: 0.411 for the first, 0.371 for the second.

Going from C54G U67G to C54G U67C, the self-cleavage falls from 0.925 to 0.819.

First: G56A G58U
Second: C54A U69C
The self-cleavage of the first is lower: 0.994 for the first, 1.04 for the second.

Going from C54A U69A to C54G C66U, the self-cleavage falls from 1.01 to 0.821.

First: U55C G56U
Second: U53C A60U
The self-cleavage of the first is higher: 0.686 for the first, 0.397 for the second.

Compared with U53C A60G, U53C A60C is lower in self-cleavage: 0.711 for the first, 0.31 for the second.

First: U53A U62A
Second: U53A U62G
The self-cleavage of the first is higher: 0.821 for the first, 0.74 for the second.

First: U53A U62C
Second: A52U U55C
The self-cleavage of the first is higher: 0.634 for the first, 0.63 for the second.

Going from U53G C66A to C54U U69C, the self-cleavage rises from 0.629 to 1.07.

First: C54U U69G
Second: U53C G65C
The self-cleavage of the first is higher: 1.06 for the first, 0.407 for the second.

Going from U53C G65A to C54G A59C, the self-cleavage rises from 0.472 to 0.478.

Compared with C54G A59G, U53C G68U is higher in self-cleavage: 0.957 for the first, 0.986 for the second.

First: U53C G68C
Second: U53C G68A
The self-cleavage of the first is higher: 1.02 for the first, 0.977 for the second.

Compared with U53A C66U, U53A C66G is lower in self-cleavage: 0.911 for the first, 0.624 for the second.

Compared with U55C C57A, G56A A60U is lower in self-cleavage: 0.367 for the first, 0.326 for the second.

Going from G56A A60C to G56A A60G, the self-cleavage rises from 0.382 to 0.856.

First: G56A U69C
Second: G56A U69G
The self-cleavage of the first is higher: 1.04 for the first, 1.03 for the second.

Compared with U55A U69C, U55A U69A is lower in self-cleavage: 1.06 for the first, 1.02 for the second.

First: G56A G68A
Second: U55C U62G
The self-cleavage of the first is higher: 0.995 for the first, 0.559 for the second.

Going from C54A U62G to C54A U62C, the self-cleavage falls from 0.58 to 0.538.

Compared with U55G G56A, C54G U55C is lower in self-cleavage: 0.963 for the first, 0.381 for the second.

First: U55C U64G
Second: U55C U64C
The self-cleavage of the first is lower: 0.531 for the first, 0.662 for the second.

Compared with U55G C57U, U55G C57G is higher in self-cleavage: 0.378 for the first, 0.39 for the second.

First: A52U U61C
Second: A52U U61A
The self-cleavage of the first is lower: 0.68 for the first, 0.935 for the second.

Going from C54U U55A to C54U U55C, the self-cleavage falls from 0.924 to 0.888.

Compared with U53C C54G, U53C C54A is higher in self-cleavage: 0.424 for the first, 0.506 for the second.

Going from U53G U55A to U53G U55C, the self-cleavage rises from 0.417 to 0.468.

Compared with C54U C66U, C54U C66A is lower in self-cleavage: 0.975 for the first, 0.845 for the second.

First: C54U C66G
Second: A52U G58U
The self-cleavage of the first is lower: 0.837 for the first, 0.992 for the second.

First: A52U G58C
Second: C54G A60C
The self-cleavage of the first is higher: 0.954 for the first, 0.282 for the second.

Going from C54G A60G to C54G A60U, the self-cleavage falls from 0.541 to 0.393.

Going from A52U C66U to A52U C66A, the self-cleavage falls from 0.973 to 0.701.

Compared with U55A A59C, U55A A59U is higher in self-cleavage: 0.394 for the first, 0.456 for the second.

Compared with U55A A59G, U55C U67C is lower in self-cleavage: 0.981 for the first, 0.912 for the second.

Compared with U53G G58C, U53G G58U is higher in self-cleavage: 0.847 for the first, 0.939 for the second.

Compared with A52U A60G, A52U A60C is lower in self-cleavage: 0.808 for the first, 0.47 for the second.

First: A52U A60U
Second: C54A U55C
The self-cleavage of the first is lower: 0.486 for the first, 0.656 for the second.

Going from C54A U55G to C54A U55A, the self-cleavage falls from 0.796 to 0.743.

Going from U55G G68C to U55G G68A, the self-cleavage falls from 0.972 to 0.951.

Compared with C54U G65C, C54U G65A is higher in self-cleavage: 0.561 for the first, 0.884 for the second.

Going from C54G G65U to C54G G65A, the self-cleavage rises from 0.587 to 0.663.

Compared with U53C, U53G is lower in self-cleavage: 0.947 for the first, 0.927 for the second.

Going from U53A to U53A C54G, the self-cleavage falls from 0.973 to 0.586.

First: U53G U62A
Second: U53G U62C
The self-cleavage of the first is higher: 0.688 for the first, 0.619 for the second.

Going from G56A U67A to G56A U67C, the self-cleavage falls from 0.927 to 0.913.

Compared with G56A U67G, U53A U64C is lower in self-cleavage: 0.995 for the first, 0.693 for the second.

Compared with U53A U64A, U53A U64G is lower in self-cleavage: 0.822 for the first, 0.626 for the second.

Going from A52U U69G to A52U U69C, the self-cleavage rises from 1.04 to 1.05.

Compared with C54G U69A, C54G U69G is higher in self-cleavage: 1.01 for the first, 1.05 for the second.

First: C54G U64G
Second: U53A C57G
The self-cleavage of the first is higher: 0.533 for the first, 0.345 for the second.

First: U53A C57U
Second: C54A U67A
The self-cleavage of the first is lower: 0.376 for the first, 0.954 for the second.

Going from U53G G65C to U53G G65A, the self-cleavage rises from 0.704 to 0.707.

First: U53G G65U
Second: U55G G65U
The self-cleavage of the first is higher: 0.606 for the first, 0.307 for the second.

Compared with U55G G65C, U55G G65A is lower in self-cleavage: 0.417 for the first, 0.408 for the second.

Going from U55C C63G to U55C C63A, the self-cleavage falls from 0.532 to 0.464.

Going from U55C C63U to U53G A59C, the self-cleavage falls from 0.85 to 0.422.

Going from U53G A59G to U55A C66A, the self-cleavage falls from 0.894 to 0.561.

Compared with U55A C66U, U55A C66G is lower in self-cleavage: 0.944 for the first, 0.68 for the second.

Going from U53A G68U to U53A G68C, the self-cleavage rises from 0.978 to 1.03.

Compared with U53A G68A, U55C U61C is lower in self-cleavage: 1.03 for the first, 0.407 for the second.

Going from U55C U61A to C54A A60G, the self-cleavage falls from 0.604 to 0.584.

Compared with C54A A60U, U55A G56C is higher in self-cleavage: 0.308 for the first, 0.636 for the second.

First: U55A G56U
Second: U55A G56A
The self-cleavage of the first is lower: 0.694 for the first, 0.976 for the second.

Compared with C54A C57U, C54A C57A is higher in self-cleavage: 0.377 for the first, 0.378 for the second.

Going from C54A C57G to U53G U64C, the self-cleavage rises from 0.338 to 0.764.

First: U53G U64G
Second: U55A U62G
The self-cleavage of the first is higher: 0.6 for the first, 0.531 for the second.

Compared with C54U U61A, C54U U61G is lower in self-cleavage: 0.933 for the first, 0.779 for the second.

Going from U55C G68U to U55C G68C, the self-cleavage rises from 0.908 to 0.977.

Going from C54A U64A to C54A U64C, the self-cleavage falls from 0.543 to 0.483.

Going from U55G A59C to U55G A59G, the self-cleavage rises from 0.364 to 0.81.

First: G56A A59U
Second: G56A A59G
The self-cleavage of the first is higher: 0.735 for the first, 0.649 for the second.

Going from U53C A59U to U53C A59G, the self-cleavage rises from 0.618 to 0.944.

Going from U53C A59C to A52U C57U, the self-cleavage falls from 0.525 to 0.309.

Compared with A52U C57A, A52U C57G is lower in self-cleavage: 0.453 for the first, 0.334 for the second.

First: U53A G56U
Second: C54G
The self-cleavage of the first is lower: 0.583 for the first, 0.951 for the second.

Compared with C54U, C54A is lower in self-cleavage: 1 for the first, 0.944 for the second.

Compared with G56A U62G, G56A U62C is lower in self-cleavage: 0.775 for the first, 0.732 for the second.

First: G56A U62A
Second: U53C C66G
The self-cleavage of the first is higher: 0.811 for the first, 0.477 for the second.

First: U55G A60C
Second: U53A U55A
The self-cleavage of the first is lower: 0.296 for the first, 0.354 for the second.

Compared with U53G U69G, U53G U69C is higher in self-cleavage: 1.02 for the first, 1.04 for the second.

First: U53G C57A
Second: U53G C57U
The self-cleavage of the first is higher: 0.327 for the first, 0.311 for the second.

First: C54A U61A
Second: C54A U61G
The self-cleavage of the first is higher: 0.512 for the first, 0.415 for the second.

Going from C54A U61C to U53A G65A, the self-cleavage rises from 0.44 to 0.739.

With U53A G65U the self-cleavage was 0.587.
